Experimental data as given in IntAct's records for PubMed 17875641.

B1: tRNA-specific adenosine deaminase subunit tad3 (Schizosaccharomyces pombe (strain ATCC 38366 / 972)), Q9P7N4 (parent)
chain: MVKTNISKNSPKEATVPELDWPFKLIKSHLETRKLETENVWIACFEPKYASKVTQYVKQIRSKQKESLLHCNRLRRIQDENGSLELQIIICPEKSMTANEIGKDFEDLGIVSKMIFLYAVPAFPPLTDEQFHEWNSVWPVSYRKHVQRQDVFTVHELKRIESILEDLINAAGASHKHGEIGCAAAIYDPTTDTVLAVSVDERSKLKNPINHCVMNAINLVAKRELSRRQNRTDGSKDRYLCKDLTVVMTHEPCVMCSMGLLHSRIRRLIYCKKQPLTGGIESLYGIHWRAELNHRYLAYSGWNKPVPSIKENIHV
partner: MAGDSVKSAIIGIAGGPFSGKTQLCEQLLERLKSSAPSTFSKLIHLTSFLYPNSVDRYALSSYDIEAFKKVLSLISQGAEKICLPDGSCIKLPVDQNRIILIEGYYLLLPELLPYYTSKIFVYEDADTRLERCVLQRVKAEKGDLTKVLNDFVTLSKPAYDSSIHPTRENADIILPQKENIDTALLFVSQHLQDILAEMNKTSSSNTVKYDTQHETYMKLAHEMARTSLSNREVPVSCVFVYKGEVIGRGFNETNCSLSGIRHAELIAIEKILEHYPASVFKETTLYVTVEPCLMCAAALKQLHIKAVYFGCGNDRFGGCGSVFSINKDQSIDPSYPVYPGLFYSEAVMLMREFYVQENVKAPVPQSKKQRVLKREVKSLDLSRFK

Variants of: B1
Details: with tad2_schpo tad2, O94642
MVKTNISKNSPKEATVPELDWPFKLIKSHLETRKLETENVWIACFEPKYASKVTQYVKQIRSKQKESLLHCNRLRRIQDENGSLELQIIICPEKSMTANEIGKDFEDLGIVSKMIFLYAVPAFPPLTDEQFHEWNSVWPVSYRKHVQRQDVFTVHELKRIESILEDLINAAGASHKHGEIGCAAAIYDPTTDTVLAVSVDERSKLKNPINHCVMNAINLVAKRELSRRQNRTDGSKDRYLCKDLTVVMTHEPCVMCNMGLLHSRIRRLIYCKKQPLTGGIESLYGIHWRAELNHRYLAYSGWNKPVPSIKENIHV [S257N] was tested, and the “effect of a mutation on the interaction” value was “decreasing interaction”.
